Target: secretory immunoglobulin A1 (sIgA1) from human colostrum (human (endogenous in colostrum), UniProt P01591 23-159; P01833 19-603, dense O-glycosylation, predominantly in the hinge region)
Experiment: apparent Kd from DLS Hill fit, h = 2.04

Sequence of secretory immunoglobulin A1 (sIgA1) from human colostrum (chain, as listed by the source, chain 1 of 3): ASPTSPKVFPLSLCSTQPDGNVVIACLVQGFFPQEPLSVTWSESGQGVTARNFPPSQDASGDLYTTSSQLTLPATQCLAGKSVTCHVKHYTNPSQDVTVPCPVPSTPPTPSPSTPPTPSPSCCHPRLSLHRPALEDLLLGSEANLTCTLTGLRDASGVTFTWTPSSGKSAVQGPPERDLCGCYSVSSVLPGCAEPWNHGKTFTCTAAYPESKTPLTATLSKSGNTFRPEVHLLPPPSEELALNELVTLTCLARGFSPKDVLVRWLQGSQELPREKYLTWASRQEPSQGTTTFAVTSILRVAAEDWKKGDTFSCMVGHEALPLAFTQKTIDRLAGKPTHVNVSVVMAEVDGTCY
Sequence of secretory immunoglobulin A1 (sIgA1) from human colostrum (P01591 23-159, chain 2 of 3): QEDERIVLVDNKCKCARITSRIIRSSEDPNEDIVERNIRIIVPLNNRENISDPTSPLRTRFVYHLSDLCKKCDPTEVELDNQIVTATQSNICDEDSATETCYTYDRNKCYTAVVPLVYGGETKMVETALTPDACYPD
Sequence of secretory immunoglobulin A1 (sIgA1) from human colostrum (P01833 19-603, chain 3 of 3): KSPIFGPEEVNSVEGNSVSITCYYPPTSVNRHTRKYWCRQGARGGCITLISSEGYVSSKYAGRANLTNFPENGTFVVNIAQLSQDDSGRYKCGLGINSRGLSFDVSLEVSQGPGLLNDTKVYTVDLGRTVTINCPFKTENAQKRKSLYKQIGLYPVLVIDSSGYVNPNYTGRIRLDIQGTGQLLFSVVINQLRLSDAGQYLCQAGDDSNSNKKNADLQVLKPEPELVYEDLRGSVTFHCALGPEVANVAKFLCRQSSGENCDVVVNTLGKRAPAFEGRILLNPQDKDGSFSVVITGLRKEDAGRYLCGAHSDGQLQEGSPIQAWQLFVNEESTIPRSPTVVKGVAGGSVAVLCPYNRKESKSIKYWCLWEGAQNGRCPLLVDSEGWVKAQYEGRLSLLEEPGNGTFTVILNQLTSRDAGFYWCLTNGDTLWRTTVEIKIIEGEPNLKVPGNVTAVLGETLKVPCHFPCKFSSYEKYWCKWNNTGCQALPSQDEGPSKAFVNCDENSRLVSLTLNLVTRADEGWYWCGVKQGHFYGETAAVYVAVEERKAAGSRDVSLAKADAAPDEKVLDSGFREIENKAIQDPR

Kd: 930 nM
B1: frutalin (FTL), galactose-specific jacalin-related lectin from Artocarpus altilis (syn. Artocarpus incisa) seeds (natural protein)
chain 1: GKAFDDGAFTGIREINLSYNKETAIGDFQVIYDLNGSPFVGQNHTSFITGFTPVKISLDFPSEYIIEVSGHTGKVSGYVVVRSLAFKTNKKTYGPYGVTSGTPFNLPIENGLIVGFKGSIGYWLDYFSMYLSL
chain 2: AEQSGKSQTVIVGPWGAQVS
modifications: α-chain glycoisoforms (differential glycosylation and limited proteolysis)
